Earlier results on one substance are cited in publication PMC9731471.

The series addresses podoplanin (Homo sapiens) (UniProt Q86YL7).

Broadly, the Kd is the equilibrium constant for the complex coming apart. In the case of CLEC-2 (from UniProt Q9P126), the Kd was 24 µM.
